Earlier results, collected in publication PMC12043044.

Target: Ubiquitin (UniProt P0CG48)

Sla1 SH3-3, sequence (P32790 350-418): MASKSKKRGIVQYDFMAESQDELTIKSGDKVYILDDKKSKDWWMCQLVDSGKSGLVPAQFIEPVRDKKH

Kd: 40 µM
Substance: Sla1 SH3-3 (from UniProt P32790)
